Experimental data as given in US20230159935, “[…] BIFUNCTIONAL […] AND TRIFUNCTIONAL […] TARGETING Tau” (UNIVERSITY OF FLORIDA RESEARCH FOUNDATION, INCORPORATED, published 2023).

Key:
[1] = biological target: T1, Bovine serum albumin (BSA) (Bos taurus, UniProt P02769 P02769:25-607); assay: dot blot
Procedure: (§1) FIG. 38A is the flow cytometry results analyzing primary binding between aptamer candidates and Tau 441. FIG. 38B is a dot blot assay showing aptamer binding specificity. FIG. 38A Primary binding analysis between aptamer candidates and Tau 441. FIG. 38B Aptamers binding specificity by dot blot assay. The nitrocellulose membranes were socked in methanol until becoming wet (1 min) then the membranes were washed with PBST solution for 5 mins. BSA, Casein, IgG, Tau and P-Tau (1 μg per protein) were respectively immobilized as striped dots on the NC membranes by air-drying. The membranes were blocked with 1% fat-free milk in PBST for 1 hour and incubated with heat-denatured aptamers (250 nM) labeled with FAM for 1 hour at room temperature. Control DNA were random sequence DNA with FAM label. The membranes were washed three times with TBST. Dots were scanned by Typhoon Imaging System (Amersham Biosciences).
(§2) The preliminary investigation of binding ability between aptamers and Tau441 was validated by flow cytometry. […] Furthermore, the binding specificity of the selected tau aptamers to full-length Tau441 protein was confirmed by dot blotting by incubating each of the FAM-labeled aptamers with nitrocellulose membranes which have already been immobilized with either target Tau441 protein or nontarget proteins (FIG. 38B). […] No cross-reactivity was observed between the aptamers and the nontarget proteins, including: α casein, β casein, BSA (bovine serum albumin), and IgG (immunoglobin G). Particularly, the membranes were blocked by milk after immobilizing with each protein which further illustrated the strong specificity of the obtained aptamers.

[2] = biological target: T2, Tau441 (2N4R tau) (Homo sapiens, UniProt P10636-8 P10636-8:1-441); assay: dot blot, 250 nM; conditions: tags: N-terminal His-tag, SignalChem (biotin-labelled for functional SELEX and BLI); label: FAM
T2 sequence (P10636 other isoform, or with tags, fused parts or gaps): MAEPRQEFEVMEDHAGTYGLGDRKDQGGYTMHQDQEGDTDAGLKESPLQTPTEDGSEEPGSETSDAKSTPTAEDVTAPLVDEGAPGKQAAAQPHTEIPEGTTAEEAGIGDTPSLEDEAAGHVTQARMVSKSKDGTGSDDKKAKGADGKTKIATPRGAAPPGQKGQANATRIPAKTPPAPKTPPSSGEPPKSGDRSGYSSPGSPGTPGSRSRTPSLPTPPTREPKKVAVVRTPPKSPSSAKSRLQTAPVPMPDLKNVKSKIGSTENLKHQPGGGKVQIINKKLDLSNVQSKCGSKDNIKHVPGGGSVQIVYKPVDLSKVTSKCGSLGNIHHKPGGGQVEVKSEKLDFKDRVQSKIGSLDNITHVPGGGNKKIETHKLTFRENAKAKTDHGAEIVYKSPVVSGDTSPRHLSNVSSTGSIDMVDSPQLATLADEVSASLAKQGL
Procedure: as §1, §2

[3] = biological target: T2, Tau441 (2N4R tau); assay: dot blot, 100 nM; stronger than BW1, BW1a, BW1b; conditions: tags: N-terminal His-tag, SignalChem (biotin-labelled for functional SELEX and BLI); label: 5' Cy5
Procedure: The nitrocellulose membranes were socked in methanol till it becomes wet (1 min) then the membranes were washed with TBST solution for 5 mins. Tau protein (stripped band 0.5 μg) were dripped on the NC membranes in every dot and then waited to dry (2 mins). The membranes were blocked with 1% fat-free milk in TBST for 1 hour and were respectively incubated with series of heat denatured aptamers (250 nM) for 1 hour in blocking buffer (contain 0.5 mM Mg²⁺) at room temperature. Next the membrane was washed for three times by TBST, 5 min for each time. Dots were scanned simultaneously by a Typhoon Imaging System (Amersham Biosciences).

[4] = biological target: T1, Bovine serum albumin (BSA); assay: EMSA; profile stated same as circular aptamer; conditions: label: FITC-dT near 3' end; hairpin
Procedure: (§3) To determine the specificity of the circular aptamer against Tau441 protein, 5 μL of 400 nM Tau (IT2a) aptamer or circular aptamer were first incubated with 0.2 mg/mL target Tau441 protein or control proteins (S100B, BSA) at 4° C. for 30 minutes. Then, each sample was loaded onto an 8% native PAGE gel. The gel was run in 1×TBE at 70 V for 10 minutes and 150 V for 40 minutes. Finally, the gel was stained with Coomassie blue for protein detection and scanned in the fluorescein channel using Typhoon for aptamer detection.
(§4) After interaction, each sample was loaded onto the nondenaturing gel for protein detection with Coomassie Brilliant Blue staining (FIG. 13A) and aptamer fluorescence (FIG. 13B) detection. […] Five microliters of 400 nM Tau (IT2a) aptamer or circular aptamer was first incubated with 0.2 mg/mL target Tau441 protein or control proteins at 4° C. for 30 minutes. […] For FIG. 13A and FIG. 13 B, Lanes 1 and 6: Ladder; Lane 2: IT2a aptamer; Lane 3: IT2a aptamer+Tau441 (67 kDa); Lane 4: IT2a aptamer+S100B (9 kDa); Lane 5: IT2a aptamer+BSA (66 kDa); Lane 7: Circular aptamer; Lane 8: Circular aptamer+Tau411 (67 kDa); Lane 9: Circular aptamer+S100B (9 kDa); Lane 10: Circular aptamer+BSA (66 kDa).

[5] = biological target: T2, Tau441 (2N4R tau); assay: EMSA; 400 nM aptamer, 0.2 mg/mL protein, 4 C; conditions: tags: N-terminal His-tag, SignalChem (biotin-labelled for functional SELEX and BLI)
Procedure: as §3, §4

[6] = biological target: T2, Tau441 (2N4R tau); assay: dot blot, 250 nM; best flow cytometry shift; Kd only in figure; conditions: tags: N-terminal His-tag, SignalChem (biotin-labelled for functional SELEX and BLI); label: FAM or 5' Cy5
Procedure: as §1
The preliminary investigation of binding ability between aptamers and Tau441 was validated by flow cytometry. […] Furthermore, the binding specificity of the selected tau aptamers to full-length Tau441 protein was confirmed by dot blotting by incubating each of the FAM-labeled aptamers with nitrocellulose membranes which have already been immobilized with either target Tau441 protein or nontarget proteins (FIG. 38B). […]

[7] = biological target: T1, Bovine serum albumin (BSA); assay: EMSA; specificity control; conditions: label: one or two FITC-dT
Procedure: as §3, §4

T1 sequence (P02769 25-607, one chain of several): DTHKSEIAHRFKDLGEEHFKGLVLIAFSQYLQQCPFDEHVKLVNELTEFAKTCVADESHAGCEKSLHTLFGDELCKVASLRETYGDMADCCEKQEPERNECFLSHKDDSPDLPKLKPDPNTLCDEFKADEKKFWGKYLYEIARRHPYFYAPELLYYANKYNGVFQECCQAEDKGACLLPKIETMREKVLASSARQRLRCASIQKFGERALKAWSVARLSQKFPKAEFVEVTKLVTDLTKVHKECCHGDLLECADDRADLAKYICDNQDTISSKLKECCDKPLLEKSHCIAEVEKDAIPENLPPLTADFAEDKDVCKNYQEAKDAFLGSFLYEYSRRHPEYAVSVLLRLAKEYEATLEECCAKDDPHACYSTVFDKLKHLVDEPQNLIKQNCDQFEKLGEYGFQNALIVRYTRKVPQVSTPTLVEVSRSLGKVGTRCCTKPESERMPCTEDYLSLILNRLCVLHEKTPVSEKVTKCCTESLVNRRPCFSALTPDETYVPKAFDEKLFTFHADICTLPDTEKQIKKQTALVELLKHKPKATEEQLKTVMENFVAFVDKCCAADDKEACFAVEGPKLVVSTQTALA

| Binder | binding result ([1]; label: FAM) | binding result [2] | further results |
| --- | --- | --- | --- |
| BW9 (ssDNA) DNA: TCACCTGAGACTTGACGATGGGAACAAACACCGCGACCACCCCCCCACTTAACTCCTGAGTGCTATCGTCTGTCCA | no binding | binds | – |
| BW10 (ssDNA) DNA: TCACCTGAGACTTGACGATGGCAATCCCCCCGACACCGAATCCTAAGCGAACAACGCGAGTGCTATCGTCTGTCCA | no binding | binds | – |
| BW5 (ssDNA) DNA: TCACCTGAGACTTGACGATGGTACGACGGCCCCCCGATTATGCGACTACTTGATTTGAGTGCTATCGTCTGTCCA | no binding | binds | – |
| BW6 (ssDNA) DNA: TCACCTGAGACTTGACGATGGTCAGAACGACGCGCCCCCCACCTCATTCATTATTTTGAGTGCTATCGTCTGTCCA | no binding | binds | – |
| BW7 (ssDNA) DNA: TCACCTGAGACTTGACGATGGTGACCACCCCCCACGCACACACACCTCTTCCATCCTGAGTGCTATCGTCTGTCCA | no binding | binds | – |
| BW4 (ssDNA) DNA: TCACCTGAGACTTGACGATGGTTTAACTCCCCCACGCCCCCCGCCAACCCATCTCCAGAGTGCTATCGTCTGTCCA | no binding | binds | – |
| BW1c (ssDNA) DNA: GACGATAGCATCACTCCCCCCCACCTATTACATCATCATAAATTGAGTGCTATCGTC | – | – | binding result [3]: binds |
| IT2a Tau aptamer (13-base extended) (ssDNA) DNA: TGACTGATTTACGGAAGCTGAATAAGGACTGCTTAGGATTGCGATGATTCAGCTTC | – | – | binding result [4]: no binding; binding result ([5]; label: FITC-dT near 3' end, hairpin): binds |
| BW2 (ssDNA) DNA: TCACCTGAGACTTGACGATGGCCTCCCCCTCACGCACTCTTCCGTTTCTTCTTATCTGAGTGCTATCGTCTGTCCA | no binding | binds | – |
| BW1 (ssDNA) DNA: TCACCTGAGACTTGACGATGGCATCACTCCCCCCCACCTATTACATCATCATAAATTGAGTGCTATCGTCTGTCCA | – | – | binding result [6]: binds; binding result ([1]; label: FAM or 5' Cy5): no binding |
| BW8 (ssDNA) DNA: TCACCTGAGACTTGACGATGGCACTACCCCTCCCTACTAAGCACGGTATCTTGTACTGAGTGCTATCGTCTGTCCA | no binding | binds | – |
| BW3 (ssDNA) DNA: TCACCTGAGACTTGACGATGGAACTCCCCCCACCATTATCAGCGCACCACCATTGTAGAGTGCTATCGTCTGTCCA | no binding | binds | – |
| Circular Tau-TfR bispecific aptamer (structured_DNA) DNA: TGACTGATTTACGGAAGCTGAATAAGGACTGCTTAGGATTGCGATGATTCAGCTTCCGTAAATCAGTCAGAAGGCGTGGTACCACGCTTTC | – | – | binding result [7]: no binding; binding result ([5]; label: one or two FITC-dT): binds |
